# T1: human DLL3 (delta-like ligand 3), on the cell surface (human, UniProt Q9NYJ7 27-618)
# T1 sequence: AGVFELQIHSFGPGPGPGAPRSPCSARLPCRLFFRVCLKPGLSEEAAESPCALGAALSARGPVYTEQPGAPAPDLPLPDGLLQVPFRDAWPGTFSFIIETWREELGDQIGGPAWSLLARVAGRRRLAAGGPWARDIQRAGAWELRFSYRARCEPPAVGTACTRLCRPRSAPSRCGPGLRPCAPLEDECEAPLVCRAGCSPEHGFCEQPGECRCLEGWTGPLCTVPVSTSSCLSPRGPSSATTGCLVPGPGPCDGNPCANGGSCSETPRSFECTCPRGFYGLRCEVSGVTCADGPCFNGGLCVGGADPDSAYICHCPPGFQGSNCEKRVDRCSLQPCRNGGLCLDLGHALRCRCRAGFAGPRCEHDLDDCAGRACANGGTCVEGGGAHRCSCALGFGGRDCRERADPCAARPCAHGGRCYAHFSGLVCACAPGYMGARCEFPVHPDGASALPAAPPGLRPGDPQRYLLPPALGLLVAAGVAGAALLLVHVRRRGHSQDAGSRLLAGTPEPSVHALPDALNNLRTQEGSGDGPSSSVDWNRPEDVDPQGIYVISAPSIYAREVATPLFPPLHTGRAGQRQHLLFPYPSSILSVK
# Molecular target: T1, human DLL3 (delta-like ligand 3), on …
# Assay: cell-based or functional assay
row,Binder,EC50 of killing of OV26 (ovarian NET NTX tumor) cells with anti-mouse IgG Fab-saporin
1,"SC16.34 (antibody, V domains shown) VH: QIQLVQSGPELKRPGETVKISCKASGYTFTNYGMNWVKQAPGKGLKWMGWINTYTGDPTYADDFKGRFAFSLETSASTAYLQINNLKNEDTATYFCARIGGNSPSDYWGQGTSLTVSS VL: SIVMTQTPKFLLVSAGDRVTITCKASQSVSNDVAWYQQKPGQSPKLLIYYASNRYSGVPDRFTGSGYGTDFTFTISTVQAEDLAVYFCQQDYSSPWTFGGGTKLEIK",5700 nM
2,"SC16.15 (antibody, V domains shown) VH: QVQLQQSGAELAKPGASVKMSCKASGYTFTRYWIHWIKQRPGQGLEWIGYINPTTVYTEFNQNFKDKATLTADKSSTTASMQLSSLTSEDSAVYYCARGGSNFFDYWGQGTTLTVSS VL: DIQMTQSPASLAASVGETVAITCRASENIYYNLAWYQQKQGKSPQLLIYTANSLEDGVPSRFSGSGSGTQYSLKINSMQPEDSATYFCKQAYDVPPTFGGGTKLEIK",140 nM

# — US20200138969A1 (published 2020)
